3 molecules from PMC4164784, “4E-BPs require non-canonical 4E-binding motifs and a lateral surface of eIF4E to repress translation” (Nature Communications, 2014) can be followed below.

In one experiment the test system is endogenous eIF4E. Briefly: Coimmunoprecipitation / m7GTP pull-down with endogenous eIF4E in S2 cell lysates. It counts as cell-based, Drosophila melanogaster. To be noted: western blot. Here is the method: (§1) The coimmunoprecipitations assays were performed as previously described. For the pull downs using m^7GTP beads, 25 μl of immobilized γ-aminophenyl-m^7GTP (C10-spacer—Jena Bioscience) beads was added to the cell lysates and the mixtures were rotated for 1 h at 4 °C. The beads were washed three times with NET buffer (50 mM Tris (pH 7.4), 150 mM NaCl, 1 mM EDTA and 0.1% Triton X-100). The bound proteins were eluted with 2 × SDS–polyacrylamide gel electrophoresis (SDS–PAGE) sample buffer and analyzed by western blotting (WB). All of the WB experiments were developed with the ECL western blotting detection system (GE Healthcare) as recommended by the manufacturer. The antibodies used in this study are listed in Supplementary Table 2.
Thor and 4E-T) or HA-eIF4G and endogenous eIF4E in S2 cell lysates. The proteins were immunoprecipitated using a polyclonal anti-eIF4E antibody (α-4E). The pre-immune (Pre-I) serum and an HA-tagged version of MBP served as negative controls. The inputs (1%) and immunoprecipitates (10%) were analyzed by western blotting using anti-HA and anti-eIF4E antibodies. (b,c) The interaction of HA-tagged full length 4E-BPs (CUP, Thor and 4E-T) and eIF4G with endogenous eIF4E was analyzed by coimmunoprecipitation using anti-HA antibodies (b) or by pull-down using m7GTP-Sepharose beads (c). HA-MBP served as a negative control. The inputs (10%) and immunoprecipitates (30%) were analyzed by western blotting using anti-HA and anti-eIF4E antibodies. (d) Western blot showing the interaction of HA-Thor (full-length either wild-type or mutants) with endogenous eIF4E in S2 cells. The proteins were immunoprecipitated using anti-HA antibodies and analyzed as described in (b,c). (e) Western blot showing the interaction of HA-4E-T (residues 1–511, wild-type or mutants) with endogenous eIF4E. The proteins were immunoprecipitated using anti-HA antibodies and analyzed as described in (b,c). The size markers (kDa) are shown to the right of each panel. Mutants are described in Supplementary Table 1.
(In general: In western blotting, separated proteins are transferred to a membrane and probed.)

Experiment [1] relates to eIF4E II-AA (lateral surface mutant). Put plainly: Coimmunoprecipitation with HA-eIF4E II-AA in S2 cells. Particulars: HA-eIF4E II-AA vs WT, western blot. It counts as cell-based, Drosophila melanogaster. The procedure: as §1
The test system of experiment [2] is eIF4E II-AA mutant (full length). Briefly: GST/MBP pull-down of full-length eIF4E II-AA mutant, coexpressed in E. coli. Format: binding, Drosophila melanogaster. To be noted: recombinant CUP (311–440), Thor (full length), 4E-T (1–58) or eIF4G (578–650), WT or mutant, SDS–PAGE. The procedure:
For the pull-down assays shown in Fig. 3 and Supplementary Fig. 6a, the full-length His6- or SHN-tagged eIF4E (WT or II-AA mutant) was coexpressed with GST or MBP-tagged protein fragments, including CUP (residues 311–440), Thor (full length), 4E-T (residues 1–58) or eIF4G (residues 578–650) in E. coli BL21 (DE3) STAR cells in autoinducing medium[44] overnight at 20 °C. The cells were resuspended in lysis buffer (20 mM Tris–HCl (pH 7.5), 100 mM NaCl, 1 mM DTT) supplemented with EDTA-free protease inhibitor (Roche) and lysed by sonication. The cleared lysates were incubated for 1 h with 20 μl of Protino Glutathione Agarose 4B beads (Macherey-Nagel) or amylose resin (New England Biolabs). The beads were washed three times with lysis buffer, and the bound proteins were eluted with lysis buffer containing 25 mM L-glutathione or 25 mM maltose for 15 min. The proteins were analyzed by 10–15% SDS–PAGE followed by Coomassie blue staining.

The test system of experiment [3] is firefly luciferase (F-Luc) reporter in S2 cells. Briefly: Translation repression assay, F-Luc reporter in S2 cells. It counts as cell-based, Drosophila melanogaster. The procedure: S2 cells were transfected in 6-well plates using Effectene transfection reagent (Qiagen) according to the manufacturers protocol. The transfection mixtures contained: 0.1 μg of F-Luc reporter plasmid (F-Luc-V5), 0.3 μg of control RNA reporter, and increasing amounts of plasmids expressing HA-CUP (fragment 1–402; 0.05–0.2 μg) and HA-Thor (full length, 0.1–0.5 μg). The plasmids expressing the corresponding mutants or the HA peptide control were transfected at the highest concentration. In all the experiments, the cells were collected three days after transfection. The F-Luc activity was measured using the Dual-Luciferase reporter assay system (Promega). The northern blotting was performed as previously described. The F-Luc mRNA levels were determined by northern blotting and were normalized to those of the control RNA. The normalized F-Luc mRNA levels were then used to normalize the F-Luc activity, to obtain translation efficiencies.

The test system of experiment [4] is endogenous eIF4E and HA-tagged 4E-BPs in S2 cells. Put plainly: Immunofluorescence localization in S2 cells. It counts as cell-based, Drosophila melanogaster. To be noted: for nuclear accumulation of endogenous eIF4E upon LMB (in words): S2 cells expressing 4E-BP or mutant; for nuclear accumulation of endogenous eIF4E upon LMB (in words) / nuclear accumulation of 4E-BP upon LMB (in words): LMB 100 nM, 12 h; for localization of endogenous eIF4E (in words): S2 cells overexpressing 4E-BP or mutant; for localization of endogenous eIF4E (in words) / localization of the 4E-BP (in words): −LMB; for nuclear accumulation of 4E-BP upon LMB (in words) / localization of the 4E-BP (in words): S2 cells; for localization of the 4E-BP (in words): steady-state. Here is the method:
S2 cells expressing HA-tagged versions of CUP, Thor and 4E-T or the indicated mutants were treated with Leptomycin B (100 nM; Sigma) or methanol as a control for 12 h. After the LMB treatment, the cells were allowed to adhere to poly-D-lysine–coated coverslips for 15 min and were fixed with 2% paraformaldehyde for 10 min. The cells were then permeabilized with 0.1% Triton X-100 in PBS (10 min) and stained with affinity-purified monoclonal anti-HA (Covance 1:1,000) and polyclonal anti-eIF4E (1:2,000) antibodies in PBS containing 1% BSA for 1 h. Alexa Fluor 594-labeled goat anti-rabbit and 488-labeled anti-mouse antibodies (Invitrogen) were used at dilutions of 1:1,000 and 1:2,000, respectively. The cells were mounted using Fluoromount-G (Southern Biotech). The images were acquired at room temperature using a confocal microscope (TCS SP2; Leica) that was fitted with a Plan-Apochromat × 100 NA 1.40 oil immersion objective and a series of three photomultipliers (Hamamatsu Photonics) controlled with the Leica confocal software (version 2.61). The images were prepared using Photoshop (Adobe). […]
Thor) independent experiments. […] Confocal fluorescent […]
micrographs of fixed S2 cells expressing HA-4E-T and GFP-Tral. The localization of HA-4E-T was determined by indirect immunofluorescence using an anti-HA antibody. The merged pictures show the HA signal in red and the GFP-Tral signal in green. Bar: 5 μm.

For experiment [5], the target named is T1, SHN-eIF4E (full length, WT) (Drosophila melanogaster, UniProt P48598-2 1-248).
T1 construct: eIF4E, Drosophila melanogaster; also called SHN-tagged eIF4E; SNH-tagged eIF4E; not shown: Strep-NusA-His (SHN), N-terminal, kept
T1 sequence (looked up): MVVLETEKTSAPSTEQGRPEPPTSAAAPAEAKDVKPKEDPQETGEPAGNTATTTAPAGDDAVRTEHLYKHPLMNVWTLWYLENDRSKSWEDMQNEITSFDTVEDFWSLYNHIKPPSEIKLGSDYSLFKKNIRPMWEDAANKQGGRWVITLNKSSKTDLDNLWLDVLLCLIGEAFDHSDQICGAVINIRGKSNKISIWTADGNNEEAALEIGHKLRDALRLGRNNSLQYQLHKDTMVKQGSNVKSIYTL
Put plainly: pull-down; preassembled complexes of SHN-eIF4E (WT or II-AA) with GST-eIF4G, GST-CUP, GST-Thor or GST-4E-T (coexpressed, purified on glutathione agarose) recovered on Strep-Tactin beads. Particulars: both partners purified.

“Also recorded” adds a separate entry of the source.

B1: 4E-T: Dm 4E-transporter (1–1010), Q8IH18; residues 1–58 in pull-down assays (protein)
chain: MDTSKISARYSKVDLLALRYEGKSRQRPQCSTRLELQTLGFWKINLNTAALTVSSAYSNQNKNRLSPEADNSSLICSNSSSISSRRAMRNRERANNYYQRFVPTDSLLISGEDKDKDALSHGQPYKLNIIDHRSISSSHLMPAFAKRRFVISKGSNSEESNEGINTCASKGKAASSPSRKGSELDTAETCLNFVQPDHDQCMSSSPTFSTSRQERRIGSGRLLPRSDNWDYKNEKTVEASIENEKETSPNGSGSTSSLNQHNQSQHRSRTFSGRLVERVPEVTDRRFQYDSKKSFDRQGINNRRISGKEPFSTQSRSKRGNSYLIHEEPEWFSAGPKSQLETIDLHGFEDLEKNEERSVTEDKNNQIQQLDKNLDAQASKDEASMRNSNDSLNFREVIPSDEKKHTDENVVTSIQNSTDLGHPNKNKPIQMQPSQNPESEFNFDAFLNMHPLDNSVLSNDETGKSDSKGTSRFSRWFRQKEAANNNEFPGFRESHAQEKRGIPSVKDLEAQMIKVDMRTDLINPIAGSLCQTVQMEKPIARDTEAFKKLLQQLGSQARQHHPCNDDCRTINLSNIANHVHLESKLHQKINDGHLQQPELSVNVPTMPTSSHVFLQKRLEIQHLIQRLHCGDVSHDFLEKELDNPSTPAATKDVIATVLNEYSHSKRNPVVTGDPNIFTQQSFLQPQSVHQHYSQELHSQNTANHTINQLISHGNSPTPLAFTPTSVLRKMTADKDTQSPSTYCQNPQYHVHQQNAKQVGTRENVLEPQLTATMAVQPRMILGGGNFAIGQNNQHLSPNMSQSRNQQVLKWTSGNMQMVHGKTFGRPILKGGLNSMPHSNSALPFTAHKIEMQPIHQPHLQQQQHRFKAVQSVESNLNTESVHQNITSPVGWHQLYMQHQQQHHHTRQQLSQRVIYGEMHRQSNPQMSPPVPGFSDSSDSGNVIKANSLTSPSYQRDERISSPTNQLAQWFSPELLAKASAGKLPLLNVNQALSLEEFERSIQHSSGVVHN
modifications: left off: GFP, end not stated, kept
notes: Dm 4E-transporter (1–1010), Q8IH18; residues 1–58 in pull-down assays
With B1, the “interaction with endogenous eIF4E (in words)” value with endogenous eIF4E is “interacted with endogenous eIF4E”. Also, the “association with eIF4E II-AA (in words)” value in experiment [1] is recorded as “disrupted the association”. The “binding to eIF4E II-AA mutant (in words)” value in experiment [2] was “pulled down comparable amounts of WT and mutant eIF4E”. Besides, in experiment [3] (overexpression, C.I. and E.I., unpublished results), the “effect on mRNA upon overexpression (in words)” value was “caused mRNA degradation when overexpressed”. Also, in experiment [4], the “nuclear accumulation of endogenous eIF4E upon LMB (in words)” value is reported as “endogenous eIF4E accumulated in the nucleus”; the “localization of endogenous eIF4E (in words)” value is “detected in P-bodies”; the “nuclear accumulation of 4E-BP upon LMB (in words)” value is “nuclear accumulation”; the “localization of the 4E-BP (in words)” value is listed as “localizes to P-bodies; also recorded: accumulated in cytoplasmic foci, which correspond to P-bodies”.

B2: GST-Thor (full length) (natural protein, Drosophila melanogaster, UniProt Q9XZ56 1-117, looked up)
chain: MSASPTARQAITQALPMITRKVVISDPIQMPEVYSSTPGGTLYSTTPGGTKLIYERAFMKNLRGSPLSQTPPSNVPSCLLRGTPRTPFRKCVPVPTELIKQTKSLKIEDQEQFQLDL
notes: Thor, Drosophila melanogaster; source: E. coli BL21 (DE3) STAR, coexpressed with SHN-eIF4E, complex purified on glutathione agarose
Turning to B2, the binding result in experiment [5] is reported as “binds”.

B3: Thor: Dm Thor full length (1–117), Q9XZ56, ortholog of 4E-BP1–3 (protein)
chain: B2 chain
modifications: left off: GFP, end not stated, kept
On to B3, for which the “interaction with endogenous eIF4E (in words)” value in the experiment with endogenous eIF4E was “interacted with endogenous eIF4E”. Besides, the “association with eIF4E II-AA (in words)” value in experiment [1] is on record as “disrupted the association”. For the same molecule, in experiment [2], the “binding to eIF4E II-AA mutant (in words)” value was “pulled down comparable amounts of WT and mutant eIF4E”. In experiment [3] (coexpression (HA-CUP 1–402 0.05–0.2 μg, HA-Thor 0.1–0.5 μg plasmid; mutants at highest), 3 days, F-Luc activity normalized to mRNA, three independent experiments), the “repression of F-Luc reporter expression (in words)” value is “inhibited the expression of the F-Luc reporter in a dose-dependent manner”. Moreover, in experiment [4], the “nuclear accumulation of endogenous eIF4E upon LMB (in words)” value was “endogenous eIF4E accumulated in the nucleus”, the “localization of endogenous eIF4E (in words)” value is “evenly distributed in the cytoplasm”, the “nuclear accumulation of 4E-BP upon LMB (in words)” value is reported as “partial nuclear accumulation” and the “localization of the 4E-BP (in words)” value is listed as “distributed evenly throughout the cytoplasm”.
